Measured values reported in the supplement of paper PMC12636428.

Test system: Saccharomyces cerevisiae
Assay: transcriptional activation domain activity (GFP:mCherry ratio, weighted mean of sorted bins, harmonized to initial dataset scale) (arbitrary fluorescence ratio units); higher = stronger transcriptional activation
Settings: beta-estradiol 1 µM; induction time 4 h
Procedure, shortened: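 For this assay, yeast diploids with a GFP reporter carried barcoded protein tiles at URA3, each fused to an estradiol-inducible synthetic transcription factor. Induction was a 1:5 dilution into SC with 1 uM beta-estradiol for 4 hours at 30 °C, followed by sorting into 8 bins by GFP:mCherry ratio and barcode sequencing. Tiles under 50 reads were dropped, and activation activity was calculated as the read-weighted mean of bin median fluorescence, averaged across barcodes and linearly mapped onto the initial dataset scale.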

TFSNGEGERVSAWDARETEDGGREIFIEGEEVRVVVVQIRDGRVADWKGAVRD
transcriptional activation domain activity: 30200

RWINSTIHNLFEVVMLPDLCGFCCFSMRFVVLLDLIGTLSLPVSFVYLVYLIY
transcriptional activation domain activity: 64400

MTHILGYIHRSCYFLFLRSFLNFDISCCWITLSWLLCRSILYYCRPMVKILSS
transcriptional activation domain activity: 66300

SSGDERQKHQTKSSSKKSREKSKKAAGRNKAEEAKTNDGRKSTRKPSKRTRST
transcriptional activation domain activity: 24900

MGFDQALGLKLSPSSSGLLSTNESNAIEQFLDNLISQDMMSSNASMNSESHLH
transcriptional activation domain activity: 76500

GGEDIAAAENTGGSPAAGSGRGRGRSSRGGRGRGSGRGRGRGGSNAAGGSAAG
transcriptional activation domain activity: 16500

EKTVEQPEELKETGGKEPRIERKLPLQYDHHQRKTRDNQMFQLAVVIYFLGKL
transcriptional activation domain activity: 40300

SFTNFLMALFGVLLGAIFLSIYTYYTFWRGCRSTILPCISSTWYKAFTILFYL
transcriptional activation domain activity: 47600

KSKKRKTGEQSDEDAVAAKKRKKSAGKKVAGEEKPKKARKSQAPAEAAGGRKS
transcriptional activation domain activity: 16500

TIVLEELRRASYWGRPSLERSWLLLDMTIKSFTGFIRLLDGDLARTICLFYLV
transcriptional activation domain activity: 76100

MPNAGIWCARWFIPLLFLPLPSASPYFLTVFIFSLIVQARPCFYCILMLTALF
transcriptional activation domain activity: 58200

LLLYLLQLVQALKYEHISTEANRDATQKSSLARFLIARAVDSFMLGNYFYWYL
transcriptional activation domain activity: 59400

DLQRHLLKDHVSQDFKHPMEPLACNWEDCDFLGDDTCSIVNHINCQHGINFDI
transcriptional activation domain activity: 53200

RSSLSSPPCPRSRRRMRVRSSTTTSTSPPARSSSADRTRPTSTTTAARPPACP
transcriptional activation domain activity: 22000

SFFFFFSYFYLDSLFLVLLPFTLCFYLFLVLWVCWLVGWFVGWLARFALSLSL
transcriptional activation domain activity: 55400

RKGSVAKEMIDGRVGRREKGGQGDNRGRKRTRRGSGERKRSDKKGRREKRNRK
transcriptional activation domain activity: 42300

YTIGFVGFVMSLQKGYLKQQFGLFCWVHMSLLIIVLSSHFVINNILEGLIWFW
transcriptional activation domain activity: 54600

MHVAYFMVLFFFIVLIDAHLVVPYIFDVELLTYMLNDAFKFDLFGCFCKVIVI
transcriptional activation domain activity: 68900

RGAKEGARGGGENEKNEGDTGRSRAEGTRETESGAGASQQRAAREGTAGTQGR
transcriptional activation domain activity: < 6570

FLVCSFHHSIFGFFFWLFFDFFSFLHWRLCVLFPFWFRSKSSFPSFFFIVIIS
transcriptional activation domain activity: 51300

MCGLVFLFLFPFVFSSFIGGVAIFFFSYFFYFIYFILQHTRILTCTWSVFLLF
transcriptional activation domain activity: 75400

KALLLLLRIAHLQFNKIPLTLIFDQFLNVAILCDMYSKGNEKYLLISWVFHRE
transcriptional activation domain activity: 28800

LGTTLLIVVKMLLNWETIDCWGLIYKKMVIGQFMSEMYRIAAGGGKRRVPWAK
transcriptional activation domain activity: 60800

RTTALGVWFLLIQSLWYFTFGALYIWFFCHTWEYLSTLLVFDYLLRFILCLMF
transcriptional activation domain activity: 68100

RLEKQGWFAYIKEFRIFLPCLWPTGSIRGKLCLVVLILDLVINRFLRVLTPRQ
transcriptional activation domain activity: 59800

MKGVCLKVGVVRPKKPNSGERKTARVRLSNGRQVTAYISGEGHNIQQHSVVLV
transcriptional activation domain activity: 53500

MDLVLCIGLFGHIPYHLQYSLPFVSFFFSHNIVHYSEMHYFGVVNSGILWLGF
transcriptional activation domain activity: 63300

KRSKSPDSRHSSSRKRSRSRERKHKSSRKRSKSREGKIKKSKSEKHRSHKHKR
transcriptional activation domain activity: 46300

MCPVLFCFYSPMILIFFFFSSFSYLLYIHTILSWFVCLLFVCYYECFLLLSFS
transcriptional activation domain activity: 44700

ESDEEAAVEAEAPKKKGRAKKVKPESEVDHEPAFEQPKKKGRAAKAKIQPAEE
transcriptional activation domain activity: 15400

ALYGLQAVVFVVIPLLQIIQIALILCQFFVANYFTIFSFVNVLFIIVAVFAFL
transcriptional activation domain activity: 41400

DNMDSDFLSRTPNYNAFSLEATSHNPADNANELGSQSNRETNSPSVFYPQANT
transcriptional activation domain activity: 22500

IAKEIGKRLGFDENSEISYLAGIWSHCIAQQLIWNVAGGLLRVRGWLWKINLS
transcriptional activation domain activity: 79900

VWEMCLVVGMGSELDVLYRVNNTVFVGCFCLARLTIVLLFAMSMLYLPMFRRD
transcriptional activation domain activity: 61200

MMSGGMAYQVLFLYLLGYRLFYPRYFLFHSMFLFFIYCYMRCCPFRFTTILID
transcriptional activation domain activity: 58000

MSDLPLFFYFYFITVCITSWRFTCILAPGLFFSFYFFLCFFCLFSLLSLHDLM
transcriptional activation domain activity: 20700

LLKPNSCHFLLRNDIVFYKWTYYVAVIINVALRFAWTLNLANLSLNPQLLIFI
transcriptional activation domain activity: 56100

TSAVLDLGDERDVADYDVISLAEDYVGRDNRKGQKRAMRLDESGPRMEIKVVK
transcriptional activation domain activity: 45400

TPFALFSSCYALNATVDQDYPLLFRRCVLGDTLWVLAILLCILWSLLVCFAFW
transcriptional activation domain activity: 31300

MNFTDIYFSDIIYVLLLYLLILFTFFLDLLISFTFVTLYSILFLFVLYSFILN
transcriptional activation domain activity: 70500

MNVLTFFYVVGGVFFFFTISFALPGGYIVLDLSYYNHIICATYLLLLFEFMFY
transcriptional activation domain activity: 54200
